For assay [1], the target named is CitAGacS649 (chimeric protein: GacS649 with its PDC domain replaced by the PDC domain of CitA from Klebsiella pneumoniae, C-terminal octa-histidine tag) (Pseudomonas aeruginosa | Klebsiella pneumoniae) (UniProt P52687). Briefly: MST; CitAGacS649 labelled with AlexaFluor 488 at 80 nM, RetSHK titrated from 140 uM to 1.06 nM, 37 °C, 0.007% DDM, with 10 mM sodium citrate.

Assay [2] has the same target. Briefly: MST; GacS649 or CitAGacS649 labelled with AlexaFluor 488 at 80 nM, RetSHK titrated from 140 uM to 1.06 nM, 37 °C, 0.007% DDM, no citrate; apparent constants.
Assay [3] addresses GacS649 (GacS residues 1-649 with C-terminal octa-histidine tag) (Pseudomonas aeruginosa). Described as above.

B1: RetSHK (histidine kinase region of the sensor histidine kinase RetS, residues 413-649) (domain or fragment)
chain: QTKAEFLAKISHEIRTPMNGVLGMTELLLGTPLSAKQRDYVQTIHSAGNELLTLINEILDISKLESGQIELDEVQFDLNALIEDCLDIFRVKAEQQRIELISFTQPQVPRVIGGDPTRLRQVVLSLLDNAFKQTEEGEILLVVALDDQGETPRLRIAVQDSGHPFDAKEREALLTAELHSGDFLSASKLGSHLGLIIARQLVRLMGGEFGIQSGSSQGTTLSLTLPLDPQQLENPTA
Turning to B1, in assay [1], the fold decrease in affinity with 10 mM citrate against no citrate came to 5 fold. The Kd in assay [2] and in assay [3] was 10 µM each time.

These data come from publication PMC12148439.
